The values below come from patent US20190225652A1, “GENERATION OF PEPTIDES” (Hexima Limited, priority 2015, published 2019).

In data set [1] the target is T1, R1 peptide derivative KLVFAEFLPLFSKFGSRMHILKNGL
T1 chain: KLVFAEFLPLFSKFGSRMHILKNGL

The target in data set [2] is T2, R1 peptide derivative GLVFAEFLPLFSKFGSRMHILKNG
T2 chain: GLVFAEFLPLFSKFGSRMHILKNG

For data set [3], the target named is T3, R1 peptide derivative GLPVFAEFLPLFSKFGSRMHILKSTRNGLP
T3 chain: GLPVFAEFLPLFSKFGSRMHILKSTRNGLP

Data set [4] deals with T4, R1 peptide derivative QLVFAEFLPLFSKFGSRMHILKNGL
T4 chain: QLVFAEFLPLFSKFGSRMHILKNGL

For data set [5], the target named is T5, R1 peptide derivative GLVFAEFLPLFSKFGSRMHILKNGL
T5 chain: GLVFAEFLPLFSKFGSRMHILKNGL

The target of data set [6] is T6, synthetic linear kalata B1 precursor carrying the native C-terminal pro-hepta-peptide GLPSLAA (wt kB1 precursor).
T6 chain: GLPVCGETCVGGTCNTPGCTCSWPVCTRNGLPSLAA

Data set [7] has as its target T7, R1 peptide derivative VFAEFLPLFSKFGSRMHILKNGL
T7 chain: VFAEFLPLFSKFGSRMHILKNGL

B1: recombinant Oldenlandia affinis asparaginyl endopeptidase OaAEP1b, activated (rOaAEP1b) (protein)
chain: MVRYLAGAVLLLVVLSVAAAVSGARDGDYLHLPSEVSRFFRPQETNDDHGEDSVGTRWAVLIAGSKGYANYRHQAGVCHAYQILKRGGLKDENIVVFMYDDIAYNESNPRPGVIINSPHGSDVYAGVPKDYTGEEVNAKNFLAAILGNKSAITGGSGKVVDSGPNDHIFIYYTDHGAAGVIGMPSKPYLYADELNDALKKKHASGTYKSLVFYLEACESGSMFEGILPEDLNIYALTSTNTTESSWCYYCPAQENPPPPEYNVCLGDLFSVAWLEDSDVQNSWYETLNQQYHHVDKRISHASHATQYGNLKLGEEGLFVYMGSNPANDNYTSLDGNALTPSSIVVNQRDADLLHLWEKFRKAPEGSARKEVAQTQIFKAMSHRVHIDSSIKLIGKLLFGIEKCTEILNAVRPAGQPLVDDWACLRSLVGTFETHCGSLSEYGMRHTRTIANICNAGISEEQMAEAASQACASIP
On to B1, for which the Cyclic product (%) in data set [1] worked out at 82.2%; in data set [3], 78.8%; in data set [4], 93.1%; in data set [5], 92.9%; in data set [7], 49.6%. Further, the Linear precursor (%) in data set [1] was 17.8%; in data set [2], 100%; in data set [3], 21.2%; in data set [4] it was 6.9%; in data set [5], 7.1%; in data set [7], 27.7%. Also, the Km in data set [6] is 212 (±76) µM for Km. Further, the kcat in data set [6] is given as 0.53 (±0.1) s^-1 for kcat. Further, the kcat/Km in data set [6] is recorded as 2,500 M^-1 s^-1 for kcat/Km. The protein also had a Linear product (%) in data set [7] of 27.7%.
